Laboratory results as given in patent US20250189530A1 (STCUBE, published 2025).

Columns and labels:
BTN1A1 Peptide 4 [1] = target: T1, BTN1A1 Peptide 4 (human); experiment: ELISA clone screen, STCube
T1 construct: also called BTN1A1-pep4- WT; Pep4
T1 peptide: EVEVGDRTDWAIGVC

hBTN1A1 ICD [2] = target: T2, hBTN1A1 ICD (human, UniProt Q13410 270-526); experiment: ELISA clone screen, STCube
T2 sequence: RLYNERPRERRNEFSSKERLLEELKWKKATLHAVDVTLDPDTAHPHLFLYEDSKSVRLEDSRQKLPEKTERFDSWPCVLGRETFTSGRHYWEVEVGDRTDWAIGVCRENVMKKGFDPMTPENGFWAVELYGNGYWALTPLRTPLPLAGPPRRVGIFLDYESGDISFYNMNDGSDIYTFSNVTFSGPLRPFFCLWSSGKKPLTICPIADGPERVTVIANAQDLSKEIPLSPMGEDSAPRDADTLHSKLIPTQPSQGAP

denatured hBTN1A1 ICD [3] = target: T3, denatured hBTN1A1 ICD (human, UniProt Q13410 270-526); experiment: ELISA clone screen, STCube
T3 construct: Same protein as hBTN1A1 ICD, denatured before the ELISA; also called hBTN1A1 ICD denatured; Denatured ICD
T3 sequence: T2 sequence

BTN1A1 Peptide 4 [4] = target: T1, BTN1A1 Peptide 4; experiment: ELISA clone screen, GenScript
hBTN1A1 ICD [5] = target: T2, hBTN1A1 ICD; experiment: ELISA clone screen, GenScript
denatured hBTN1A1 ICD [6] = target: T3, denatured hBTN1A1 ICD; experiment: ELISA clone screen, GenScript

B1: STC43H11-1 (antibody, V domains shown)
VH: QSLEESGGRLVTPGGSLTLTCTVSGIDLSSYAMGWVRQAPGEGLEWIGSIGTGGGTGYASWAKGRFTISKTSTTVDLKMTSLTASDTATYFCATSNLWGPGTLVTVSS
VL: QVLTQTASPVSAAVGGTVTINCQASQSVYNNNRCSWFQQKPGQPPKRLIYHTSTLDSGVPSRFKGSGSGTQFTLTISDVQCDDAATYYCLGNYDCSRADCAAFGGGTEVVVK
notes: From immunized New Zealand rabbits; IgG heavy chain and Kappa light chain; also called clone #43H11; Clone 43H11
An ELISA signal (BTN1A1 Peptide 4 [1]) of 0.945, an ELISA signal (hBTN1A1 ICD [2]) of 1.98 and an ELISA signal (denatured hBTN1A1 ICD [3]) of 0.111 were found for B1 in this work. The ELISA signal (BTN1A1 Peptide 4 [4]) was 0.609, the ELISA signal (hBTN1A1 ICD [5]) was 1.6 and the ELISA signal (denatured hBTN1A1 ICD [6]) was 2.27.
